What was measured:
[1] = molecular target: T1, ubiquitin aldehyde (Ubal) (UniProt P0CG47 1-76, C-terminal residue as aldehyde); experiment: competition: wild type yeast lysate pre-incubated with increasing Ubal, then [^125I]-UbVS labeling
Text: Reactions were quenched with sample buffer, resolved by 10% SDS-PAGE and analyzed by autoradiography. Identity of bands was assigned based on the absence of a band corresponding to the molecular weight of a DUB deleted in that strain.

[2] = molecular target: T1, ubiquitin aldehyde (Ubal); experiment: competition: lysate pre-treated with Ubal, then [^125I]-UbVS labeling

Binder	binding result [1]	binding result [2]
Ubp1 (enzyme, S. cerevisiae, UniProt P25037 1-809, looked up, also called Ubp1p) MDLFIESKINSLLQFLFGSRQDFLRNFKTWSNNNNNLSIYLLIFGIVVFFYKKPDHLNYIVESVSEMTTNFRNNNSLSRWLPRSKFTHLDEEILKRGGFIAGLVNDGNTCFMNSVLQSLASSRELMEFLDNNVIRTYEEIEQNEHNEEGNGQESAQDEATHKKNTRKGGKVYGKHKKKLNRKSSSKEDEEKSQEPDITFSVALRDLLSALNAKYYRDKPYFKTNSLLKAMSKSPRKNILLGYDQEDAQEFFQNILAELESNVKSLNTEKLDTTPVAKSELPDDALVGQLNLGEVGTVYIPTEQIDPNSILHDKSIQNFTPFKLMTPLDGITAERIGCLQCGENGGIRYSVFSGLSLNLPNENIGSTLKLSQLLSDWSKPEIIEGVECNRCALTAAHSHLFGQLKEFEKKPEGSIPEKLINAVKDRVHQIEEVLAKPVIDDEDYKKLHTANMVRKCSKSKQILISRPPPLLSIHINRSVFDPRTYMIRKNNSKVLFKSRLNLAPWCCDINEINLDARLPMSKKEKAAQQDSSEDENIGGEYYTKLHERFEQEFEDSEEEKEYDDAEGNYASHYNHTKDISNYDPLNGEVDGVTSDDEDEYIEETDALGNTIKKRIIEHSDVENENVKDNEELQEIDNVSLDEPKINVEDQLETSSDEEDVIPAPPINYARSFSTVPATPLTYSLRSVIVHYGTHNYGHYIAFRKYRGCWWRISDETVYVVDEAEVLSTPGVFMLFYEYDFDEETGKMKDDLEAIQSNNEEDDEKEQEQKGVQEPKESQEQGEGEEQEEGQEQMKFERTEDHRDISGKDVN	binds	–
Ubp2 (enzyme, S. cerevisiae, UniProt Q01476 1-1272, looked up, also called Ubp2p) MPNEDNELQKAIENHHNQLLNQDKENADRNGSVIEDLPLYGTSINQQSTPGDVDDGKHLLYPDIATNLPLKTSDRLLDDILCDTIFLNSTDPKVMQKGLQSRGILKESMLSYSTFRSSIRPNCLGSLTDQVVFQTKSEYDSISCPKYNKIHVFQAVIFNPSLAEQQISTFDDIVKIPIYHLKVSVKVRQELERLKKHVGVTQFHSLDHLHEYDRVDLSTFDSSDPNLLDYGIYVSDDTNKLILIEIFKPEFNSPEEHESFTADAIKKRYNAMCVKNESLDKSETPSQVDCFYTLFKIFKGPLTRKSKAEPTKTIDSGNLALNTHLNPEWLTSKYGFQASSEIDEETNEIFTEYVPPDMVDYVNDLETRKIRESFVRKCLQLIFWGQLSTSLLAPNSPLKNTKSVKGMSSLQTSFSTLPWFHLLGESRARILLNSNEQTHSPLDAEPHFINLSVSHYYTDRDIIRNYESLSSLDPENIGLYFDALTYIANRKGAYQLIAYCGKQDIIGQEALENALLMFKINPKECNISELNEATLLSIYKYETSNKSQVTSNHLTNLKNALRLLAKYTKSDKLKFYVDHEPYRALSQAYDTLSIDESVDEDIIKTAYSVKINDSPGLKLDCDRALYTIAISKRSLDLFNFLTEECPQFSNYYGPEKLDYQEALKLLQVNENASDETILKIFKQKWFDENVYEPDQFLILRAALTKISIERNSTLITNFLLTGTIDPNSLPPENWPTGINNIGNTCYLNSLLQYYFSIAPLRRYVLEYQKTVENFNDHLSNSGHIRRIGGREISRGEVERSIQFIYQLRNLFYAMVHTRERCVTPSKELAYLAFAPSNVEVEFEVEGNKVVDQTGVLSDSKKETTDDAFTTKIKDTSLIDLEMEDGLNGDVGTDANRKKNESNDAEVSENEDTTGLTSPTRVAKISSDQLENALEMGRQQDVTECIGNVLFQIESGSEPIRYDEDNEQYDLVKQLFYGTTKQSIVPLSATNKVRTKVERFLSLLINIGDHPKDIYDAFDSYFKDEYLTMEEYGDVIRTVAVTTFPTILQVQIQRVYYDRERLMPFKSIEPLPFKEVIYMDRYADTENPLLLAKKKETEEMKQKLKVMKNRQRELLSRDDSGLTRKDAFLESIKLLESDTIKKTPLKIEAANDVIKTLRNNVQNIDNELMKLYNDINSLEEKISHQFDDFKEYGYSLFSVFIHRGEASYGHYWIYIKDRNRNGIWRKYNDETISEVQEEEVFNFNEGNTATPYFLVYVKQGQEGDIEPLKRILK	binds	–
Ubp15 (enzyme, S. cerevisiae, UniProt P50101 1-1230, looked up, also called Ubp15p) MSSEDELGSIGTVFPGSPIDKSIGSILPQFDEEVETLLEDSFTWNIPDWNELTNPKYNSPRFRIGDFEWDILLFPQGNHNKGVAVYLEPHPEEKLDETTGEMVPVDPDWYCCAQFAIGISRPGNGDTINLINKSHHRFNALDTDWGFANLIDLNNLKHPSKGRPLSFLNEGTLNITAYVRILKDPTGVLWHNFLNYDSKKVTGYVGFRNQGATCYLNSLLQSYFFTKYFRKLVYEIPTEHESPNNSVPLALQRAFYQLQVSDIPLDTLELTRSFGWDTAESFTQHDVQELNRILMDRLENNMKGTPVEGKLNEIFVGKMKSYIKCINVDYESARVEDFWDLQLNVKNFKNLQESFDNYIEMELMNGENQYAAQDYGLQDAQKGVIFESFPPVLHLQLKRFEYDFNYDQMVKVNDKYEFPETIDLSPFVDKDVLKKTLDSENKDKNPYVYNLHGVLVHSGDISTGHYYTLIKPGVEDQWYRFDDERVWRVTKKQVFQENFGCDRLPDEKVRTMTRGEYQNYIIQRHTSAYMLVYIRQEQEEDLLRPVLESDVPKHVITRVREEIKERETKEKEIREAHLYVTLRLHSIKEFIHYEGFDYFAHDGFRLFAEELNDSGLQQINLKVLRTTKLSDIFASIKETMNIPQERDVKYWKMDYRRNSTLRLTQPINFESVNITLQEALKKEKKRTMQTQYGEEGVASTEEDDKALLETVSFLDLFIEEPYLELQFLNKLKEASLISKAQLDDELISTIRTNLPELTKGGIEPVFATDNKSNLLFVKSYDPHTQKLLGFGHFAVNQLQQLSDISAIIEDSISSNEKLTFYEEVQPGTINEIYMKETIYDADIDTGDIVSFEVPGAVLPDTFPVYATIKDFYSYLRYRVKLKFSKFDGSSEEYGVSNEIPESFEFWISAYAPYDDLARMVSKYAHVKPEYLKIIALYSNGRFVLKSTSLLNDYLLKDFNCDQIPPFAFEVLSVPLKELERLRPIKLYWLKNSYIHYQCFEFEVANDYTESQFLEKVQHKIGFTDEEKENILLWTNTNFQFQGLLSDQNTFKDVSKHSLLFGRILPEESKLFKELNRLENVQTSSLEDFMDDENATDRPMDDEQDLGMAIEHSEDMKGRIVVVQQYFKDLENRHGISFLFNLIPDETFPKTKDRLHAKFGLGQKEFSKIKLSIGYSTEEGTVFRSLQGFSDEELDKVILYDIMSNLDYIYMDHPDRLRSHSSYDRPMIIKN	binds	–

Now from value to binder:

binding result [1]	binding result [2]	Binder
binds	–	Yuh1 (enzyme, S. cerevisiae, UniProt P35127 1-236, looked up, also called Yuh1p) MSGENRAVVPIESNPEVFTNFAHKLGLKNEWAYFDIYSLTEPELLAFLPRPVKAIVLLFPINEDRKSSTSQQITSSYDVIWFKQSVKNACGLYAILHSLSNNQSLLEPGSDLDNFLKSQSDTSSSKNRFDDVTTDQFVLNVIKENVQTFSTGQSEAPEATADTNLHYITYVEENGGIFELDGRNLSGPLYLGKSDPTATDLIEQELVRVRVASYMENANEEDVLNFAMLGLGPNWE
binds	–	Ubp6 (enzyme, S. cerevisiae, UniProt P43593 1-499, looked up, also called Ubp6p) MSGETFEFNIRHSGKVYPITLSTDATSADLKSKAEELTQVPSARQKYMVKGGLSGEESIKIYPLIKPGSTVMLLGTPDANLISKPAKKNNFIEDLAPEQQVQQFAQLPVGFKNMGNTCYLNATLQALYRVNDLRDMILNYNPSQGVSNSGAQDEEIHKQIVIEMKRCFENLQNKSFKSVLPIVLLNTLRKCYPQFAERDSQGGFYKQQDAEELFTQLFHSMSIVFGDKFSEDFRIQFKTTIKDTANDNDITVKENESDSKLQCHISGTTNFMRNGLLEGLNEKIEKRSDLTGANSIYSVEKKISRLPKFLTVQYVRFFWKRSTNKKSKILRKVVFPFQLDVADMLTPEYAAEKVKVRDELRKVEKEKNEKEREIKRRKFDPSSSENVMTPREQYETQVALNESEKDQWLEEYKKHFPPNLEKGENPSCVYNLIGVITHQGANSESGHYQAFIRDELDENKWYKFNDDKVSVVEKEKIESLAGGGESDSALILMYKGFGL
–	binds	USP14 (TGT) (enzyme, mouse (EL-4 cell lysate), UniProt Q9JMA1 1-493, looked up, also called p58) MPLYSVTVKWGKEKFEGVELNTDEPPMVFKAQLFALTGVQPARQKVMVKGGTLKDDDWGNIKMKNGMTVLMMGSADALPEEPSAKTVFVEDMTEEQLATAMELPCGLTNLGNTCYMNATVQCIRSVPELKDALKRYAGALRASGEMASAQYITAALRDLFDSMDKTSSSIPPIILLQFLHMAFPQFAEKGEQGQYLQQDANECWIQMMRVLQQKLEAIEDDSGRETDSSSAPAVTPSKKKSLIDQYFGVEFETTMKCTESEEEEVTKGKENQLQLSCFINQEVKYLFTGLKLRLQEEITKQSPTLQRNALYIKSSKISRLPAYLTIQMVRFFYKEKESVNAKVLKDVKFPLMLDVYELCTPELQEKMVSFRSKFKDLEDKKVNQQPNANDKNSPPKEIKYEPFSFADDIGSNNCGYYDLQAVLTHQGRSSSSGHYVSWVRRKQDEWIKFDDDKVSIVTPEDILRLSGGGDWHIAYVLLYGPRRVEIMEEESEQ

Reference: patent US20050277762A1 (published 2005)
